# Laboratory results published in US20160200831A1 (Sanofi, published 2016).
# Target: T1, cynomolgus PAI-1 (cynomolgus monkey (Macaca fascicularis), UniProt P05121 24-402 (human entry))
# T1 construct: produced in-house in E. coli (non-glycosylated); active cyno PAI-1 in the assays; also called cyno PAI-1; cPAI-1
# Assay: Biacore
# T1 sequence (P05121 other isoform, or with tags, fused parts or gaps limits assumed): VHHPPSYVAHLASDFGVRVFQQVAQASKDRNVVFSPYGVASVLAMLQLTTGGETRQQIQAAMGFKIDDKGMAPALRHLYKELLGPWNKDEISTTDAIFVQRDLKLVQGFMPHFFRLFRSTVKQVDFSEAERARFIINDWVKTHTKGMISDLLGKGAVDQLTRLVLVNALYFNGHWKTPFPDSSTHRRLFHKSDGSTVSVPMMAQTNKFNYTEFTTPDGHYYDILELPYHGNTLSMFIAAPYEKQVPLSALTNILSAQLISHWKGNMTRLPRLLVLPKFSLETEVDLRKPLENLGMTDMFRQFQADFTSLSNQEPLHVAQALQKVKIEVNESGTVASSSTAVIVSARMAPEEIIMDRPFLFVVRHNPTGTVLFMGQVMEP
row,Binder,binding result
1,"A44-hv1 (antibody, V domains shown, humanized A44, HEK293; also called LC1a x HC1a; variant 1) VH: EMTLKESGPTLVKPTQTLSLTCSVTGDSMTNGYWNWIRKFPGKALEYMGYITYSGSTYYNPSLKGRISITRNTSKNQYYLTLSSVTTVDTATYYCARWHYGSPYYFDYWGQGTTLTVSS VL: DIKMTQSPSSLSASVGDRVTITCKASQDINSYLSWLQQKPGKSPKTLIYRANRSVDGVPSRFSGSGSGQDYSLTISSLQPEDLGIYYCLQYDEFPPTFGGGTKLEIK",binds
2,"A44-hv9 (antibody, V domains shown, humanized A44, HEK293; constant regions as for A44-hv1; also called LC5b x HC5b; variant 9) VH: QMQLQESGPGLVKPSETLSLTCTVSGDSMTNGYWNWIRQPPGKGLEYMGYITYSGSTYYNPSLKSRITISRDTSKNQYSLKLSSVTAADTAVYYCARWHYGSPYYFDYWGQGTLVTVSS VL: DIQMTQSPSSLSASVGDRVTITCKASQDINSYLSWLQQKPGKAPKTLIYRANRSVDGVPSRFSGSGSGQDYTFTISSLQPEDIATYYCLQYDEFPPTFGGGTKVEIK",binds
3,"A44-hv2 (antibody, V domains shown, humanized A44, HEK293; constant regions as for A44-hv1; also called LC1b x HC1b; variant 2) VH: EMQLQESGPGLVKPSETLSLTCSVTGDSMTNGYWNWIRKFPGKGLEYMGYITYSGSTYYNPSLKGRISITRNTSKNQYYLKLSSVTTADTATYYCARWHYGSPYYFDYWGQGTTLTVSS VL: DIKMTQSPSSVSVSPGQTVTITCKASQDINSYLSWLQQKPGQSPKTLIYRANRSVDGVPSRFSGSGSGQDYSLTISSLQAMDEGIYYCLQYDEFPPTFGGGTKLTIK",binds
4,"A44-hv7 (antibody, V domains shown, humanized A44, HEK293; constant regions as for A44-hv1; also called LC4 x HC4; variant 7) VH: QMTLKESGPTLVKPTQTLSLTCSVSGESMTQGYWNWIRQFPGKALEYMGYITYSGSTYYNPSLKGRITITRQTSKNQYYLTLSSVTTVETATYYCARWHYGSPYYFDYWGQGTTLTVSS VL: DIKMTQSPSSLSASVGDRVTITCKASQDINSYLSWLQQKPGKSPKTLIYRAQRSVEGVPSRFSGSGSGQDYSLTISSLQPEDLATYYCLQYDEFPPTFGGGTKLEIK",binds
5,"A44-hv4 (antibody, V domains shown, humanized A44, HEK293; constant regions as for A44-hv1; also called LC1a x HC2b; variant 4) VH: EMTLKESGPTLVKPTQTLSLTCSVTGDSMTQGYWNWIRKFPGKALEYMGYITYSGSTYYNPSLKGRISITRNTSKNQYYLTLSSVTTVDTATYYCARWHYGSPYYFDYWGQGTTLTVSS VL: DIKMTQSPSSLSASVGDRVTITCKASQDINSYLSWLQQKPGKSPKTLIYRANRSVDGVPSRFSGSGSGQDYSLTISSLQPEDLGIYYCLQYDEFPPTFGGGTKLEIK",binds
6,"A44-hv5 (antibody, V domains shown, humanized A44, HEK293; constant regions as for A44-hv1; also called LC2 x HC2b; variant 5) VH: EMTLKESGPTLVKPTQTLSLTCSVTGDSMTQGYWNWIRKFPGKALEYMGYITYSGSTYYNPSLKGRISITRNTSKNQYYLTLSSVTTVDTATYYCARWHYGSPYYFDYWGQGTTLTVSS VL: DIKMTQSPSSLSASVGDRVTITCKASQDINSYLSWLQQKPGKSPKTLIYRAQRSVEGVPSRFSGSGSGQDYSLTISSLQPEDLGIYYCLQYDEFPPTFGGGTKLEIK",binds
7,"A44-hv6 (antibody, V domains shown, humanized A44, HEK293; constant regions as for A44-hv1; also called LC3 x HC3; variant 6) VH: QMTLKESGPTLVKPTQTLSLTCSVSGDSMTNGYWNWIRQFPGKALEYMGYITYSGSTYYNPSLKGRITITRDTSKNQYYLTLSSVTTVDTATYYCARWHYGSPYYFDYWGQGTTLTVSS VL: DIKMTQSPSSLSASVGDRVTITCKASQDINSYLSWLQQKPGKSPKTLIYRANRSVDGVPSRFSGSGSGQDYSLTISSLQPEDLATYYCLQYDEFPPTFGGGTKLEIK",binds
